# Measurements published in PMC2683983 (Molecular pharmaceutics, 2009).
# Numbered stars: 1 amine (or outer) side, 2 acyl side, 3 side chain; on linkers, the order of the positions; unused ones are H or OH. Bridge positions count the residues as written; N and C are the ends. Peptide text beside a SMILES is read from it. * marks the point of attachment. Doxorubicin(3'-N) = COc1cccc2c1C(=O)c1c(O)c3c(c(O)c1C2=O)C[C@@](O)(C(=O)CO)C[C@@H]3O[C@H]1C[C@H](N*)[C@H](O)[C@H](C)O1; Suc = O=C(CCC(=O)[*:2])[*:1]; AEEEA = NCCOCCOCCOCC(=O)O
# What was measured:
# [1] = tested on: ICAM-1/LFA-1-mediated heterotypic T-cell adhesion; conditions: cited from earlier work
# [2] = pH 7.4; cited from earlier work
# HL-60 cells = conditions: HL-60, 10 μM, 1 h; for intracellular fluorescence distribution / uptake at 4 °C / intracellular fluorescence distribution at 37 °C: RPMI 1640, epifluorescence, rhodamine filter; for entry mechanism into cells: 37 °C compared with 4 °C
# I-domain of LFA-1 = conditions: cited from earlier work
Compound,distribution ratio [2],intracellular fluorescence distribution / uptake at 4 °C (HL-60 cells),intracellular fluorescence distribution at 37 °C (HL-60 cells),entry mechanism into cells (HL-60 cells),also measured
"cyclo(1,6)PRGGKV (head to tail)",,,,,peptide activity after introduction of Lys5 in place of Ser5 [1]: lower peptide activity
"COc1cccc2c1C(=O)c1c(O)c3c(c(O)c1C2=O)C[C@@](O)(C(=O)CO)C[C@@H]3O[C@H]1C[C@H](N)[C@H](O)[C@H](C)O1 [DOX, Doxorubicin, reference compound]",1.2,uptake of DOX was suppressed,localized inside the nucleus,,
"cyclo(1,8)CPRGGSVC (disulfide) [cIBR7]",,,,,activity to inhibit heterotypic T-cell adhesion compared with parent cIBR [1]: better activity; binding affinity to the isolated I-domain compared with cIBR (I-domain of LFA-1): higher
CNGRC [DOX-CNGRC],5.3,,,,
COc1cccc2c1C(=O)c1c(O)c3c(c(O)c1C2=O)C[C@@](O)(C(=O)CO)C[C@@H]3O[C@H]1C[C@H](NC(=O)CCC(=O)NCCOCCOCCOCC(=O)N[C@H]2CSSC[C@@H](C(=O)O)NC(=O)[C@H](C(C)C)NC(=O)[C@H](CO)NC(=O)CNC(=O)CNC(=O)[C@H](CCCNC(=N)N)NC(=O)[C@@H]3CCCN3C2=O)[C@H](O)[C@H](C)O1 [DOX-PEGcIBR7] ({Doxorubicin(3'-N)-Suc-AEEEA}-CPRGGSVC-OH; disulfide 1-8),,diffuse fluorescence of the conjugates inside the cell cytosol,diffuse fluorescence distribution pattern in the cellular cytoplasm,passive diffusion,
COc1cccc2c1C(=O)c1c(O)c3c(c(O)c1C2=O)C[C@@](O)(C(=O)CO)C[C@@H]3O[C@H]1C[C@H](NC(=O)CCC(=O)N[C@H]2CSSC[C@@H](C(=O)O)NC(=O)[C@H](C(C)C)NC(=O)[C@H](CO)NC(=O)CNC(=O)CNC(=O)[C@H](CCCNC(=N)N)NC(=O)[C@@H]3CCCN3C2=O)[C@H](O)[C@H](C)O1 [DOX-cIBR7] ({Doxorubicin(3'-N)-Suc}-CPRGGSVC-OH; disulfide 1-8),,diffuse fluorescence of the conjugates inside the cell cytosol,diffuse fluorescence distribution pattern in the cellular cytoplasm,passive diffusion,
